Experimental data: patent US20220227846A1 (TEMPLE UNIVERSITY OF THE COMMONWEALTH SYSTEM OF HIGHER …, published 2022)

What was measured:
Assay in all cases: SPR, calculated KD (Qdat software)
[1] = molecular target: T1, C-terminal biotinylated Aβ42 monomers (UniProt P05067 672-713, C-terminal biotin)
T1 construct: domain: Aβ42; also called CTB mono
Experimental: (§1) MAb binding to Aβ42 conformers was measured by surface plasma resonance (SPR) (Table 1). Calculated affinity constants (KD) were obtained using Qdat software. […] The 3H3 binding data is qualitatively most similar to the 4G1 and 6E10 mAbs. 4A6 and 2C10 preferentially bind Aβ fibrils.

Aβ42 fibrils = molecular target: T2, Aβ42 fibrils (UniProt P05067 672-713)
T2 construct: domain: Aβ42; Fibrillar conformer of Aβ42; also called Aβ fibrils
Experimental: as §1

[2] = molecular target: T3, Aβ42 oligomers (ADDLs/globulomers) (UniProt P05067 672-713)
T3 construct: domain: Aβ42; Oligomeric conformer of Aβ42; also called amyloid beta derived diffusible ligands
Experimental: as §1

[3] = molecular target: T4, N-terminal biotinylated Aβ42 monomers (UniProt P05067 672-713, N-terminal biotin)
T4 construct: domain: Aβ42; also called NTB mono
Experimental: as §1

[4] = molecular target: T5, C-terminal biotinylated Aβ42 ADDLs/globulomers (UniProt P05067 672-713, C-terminal biotin)
T5 construct: domain: Aβ42; also called CTB oligo
Experimental: as §1

T3 sequence (P05067 672-713 limits assumed): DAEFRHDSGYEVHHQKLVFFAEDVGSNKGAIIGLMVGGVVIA
T1 sequence (P05067 672-713 limits assumed): as above
T2 sequence (P05067 672-713 limits assumed): as above
T5 sequence (P05067 672-713 limits assumed): as above
T4 sequence (P05067 672-713 limits assumed): as above

B1: ALZ.4A6 (antibody, V domains shown)
VH: QVQLVQSGAEVKKPGASMRVSCKASGYTYTAYYIHWMRQAPGQGLEWMGWINPHIGSTNYAEKFRGRVTLTRDTSIKTAYMDLDRLTSDDTAIYYCARVRAPRSISGTLNSYGMDVWGQGTTVAVSS
VL: DIVMTQSPSSLSASVGDRVVITCRASLRIGTFLNWYQQTQGRAPKLLVSSASTLQSGVPSRFSGSGSGTDFTLTINSLQPEDFATYYCQQSYSTTWTFGQGTKVELK
notes: Human mAb cloned from hybridomas made from B cells of a patient with Alzheimer's Disease
B1 was tested. Which Kd [1] did it give?
Its Kd is 16 nM.

What about the Kd (Aβ42 fibrils) of the same binder?
The Kd was 11 nM.

And the Kd [2]?
Its Kd is 1300 nM.

B2: ALZ.3H3 (antibody, V domains shown)
VH: QVQLVESGGGVVQPGRSLRLSCAASGFSFSTYGMHWVRQAPGKGLEWVAVISYDGSRKYYADTGKGRFTISRDNSKNTLYLEMNGLRAEDTAVYHCAKDLRRELGFGNRDYHYYGMDAWGQGTTVTVSS
VL: LTQPRSVSGSPGQSVTMSCTGTNSDIGGYNYVSWYQQHPGKAPKLMIYDVYKRPSGVPDRFSGSKSGNTASLTISGLQAEDEADYYCCSYAGTNNLIFGGGTKLTVLG
How did the Kd [3] turn out when B2 was run?
The Kd was 240 nM.

What about the Kd [1] of the same binder?
The Kd was 3.4 nM.

What about the Kd (Aβ42 fibrils) of the same binder?
Its Kd is 2.1 nM.

And the Kd [2]?
The Kd was 40 nM.

And the Kd [4]?
Its Kd is 35 nM.

B3: ALZ.4G1 (antibody, V domains shown)
VH: EEHLVESGGALVQPGGSLRLSCEASGFTFRSYWMTWVRQAPGKGLEWLANIKQDGSDYYYVDSVKGRFTISRDNAKNTLYLQMNNLRADDTAVYFCARDARYRDTTWPQYYFYYFMDVWGKGTTVTVSS
VL: DIQLTQSPSSLSASIGDRVTVTCRASQSISNYLNWYQQKPGKAPKLLIYAASNLHTGVPSRFSGSGSGTHFTLTISSLQPEDFATYYCQLSYNNPRTFGPGTTVDIR
notes: as for B1
Which Kd [3] does the source give for B3 here?
The Kd was 1700 nM.

What about the Kd [1] of the same binder?
Its Kd is 15 nM.

And the Kd (Aβ42 fibrils)?
Its Kd is 14 nM.

What about the Kd [2] of the same binder?
Its Kd is 8.8 nM.

What about the Kd [4] of the same binder?
Its Kd is 11.4 nM.
